What is called Kd is the free concentration of one partner at which half of the binding sites on the other are occupied at equilibrium, for simple one-to-one binding.

Kd data for one molecule are collected here from paper PMC4254511.

The data set deals with ICP8 (Infected Cell Polypeptide 8, HSV-1 SSB) (herpes simplex virus-1, UniProt P04296 1-1196). Nature of the data set: thermal shift assay.
Chain of ICP8 (Infected Cell Polypeptide 8, HSV-1 SSB) (P04296 whole entry): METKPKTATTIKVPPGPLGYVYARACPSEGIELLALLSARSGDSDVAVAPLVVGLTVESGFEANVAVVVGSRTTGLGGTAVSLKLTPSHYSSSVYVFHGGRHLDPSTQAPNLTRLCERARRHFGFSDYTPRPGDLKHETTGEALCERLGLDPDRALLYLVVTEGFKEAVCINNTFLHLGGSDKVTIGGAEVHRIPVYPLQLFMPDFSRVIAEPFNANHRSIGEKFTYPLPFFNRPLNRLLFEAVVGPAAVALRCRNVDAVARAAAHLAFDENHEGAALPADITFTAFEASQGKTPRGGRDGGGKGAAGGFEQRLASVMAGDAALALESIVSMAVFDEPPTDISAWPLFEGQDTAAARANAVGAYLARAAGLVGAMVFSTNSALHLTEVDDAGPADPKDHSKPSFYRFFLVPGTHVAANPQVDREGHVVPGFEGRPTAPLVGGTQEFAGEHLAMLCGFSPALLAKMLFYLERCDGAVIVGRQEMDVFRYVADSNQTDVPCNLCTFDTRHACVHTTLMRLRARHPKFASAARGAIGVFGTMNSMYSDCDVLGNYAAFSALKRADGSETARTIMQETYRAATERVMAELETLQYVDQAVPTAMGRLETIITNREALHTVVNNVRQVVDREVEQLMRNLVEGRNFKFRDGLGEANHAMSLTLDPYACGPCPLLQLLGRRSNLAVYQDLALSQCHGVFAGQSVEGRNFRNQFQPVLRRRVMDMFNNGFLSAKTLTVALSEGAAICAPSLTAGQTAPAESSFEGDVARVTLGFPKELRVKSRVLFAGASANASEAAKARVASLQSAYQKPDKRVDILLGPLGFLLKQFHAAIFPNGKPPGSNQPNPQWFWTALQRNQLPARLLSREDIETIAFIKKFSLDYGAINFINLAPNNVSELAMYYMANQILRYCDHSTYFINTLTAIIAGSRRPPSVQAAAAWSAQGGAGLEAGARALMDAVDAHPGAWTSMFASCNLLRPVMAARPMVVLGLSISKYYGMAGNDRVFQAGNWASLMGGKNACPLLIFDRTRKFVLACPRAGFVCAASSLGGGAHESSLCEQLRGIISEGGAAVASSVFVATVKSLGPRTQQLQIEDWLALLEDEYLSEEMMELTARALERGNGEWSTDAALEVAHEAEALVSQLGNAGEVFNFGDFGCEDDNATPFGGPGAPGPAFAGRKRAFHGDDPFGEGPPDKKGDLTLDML

Turning to TTTTTTTTTTTTTTTTTTTT (ssDNA) [(dT)20], the Kd was less than 1 µM.
